Data: patent US10363306B2, “Cytokines and neuroantigens for treatment of immune disorders” (East Carolina University, priority 2009, dated 2019)

Tests used:
BN-GP T cells = experiment: IFNβ anti-proliferative activity in IL-2 stimulated cultures of BN-GP T cells; type: cell-based, rat; conditions: for Biological activity of IFNβ in expression supernatants: transient transfection of HEK293 cells
Method: FIG. 1. The IFNβ-NAg his-tagged fusion protein was biologically active and was purified on nickel resins. (A) To assess whether IFNβ-NAg induced class I MHC expression, thymocytes (5×10^6/ml in complete RPMI) were cultured with or without IFNβ-NAg for 2 days and then were stained with B5 (anti-MHC-I), OX18 (anti-MHC-I), R73 (anti-TCRβ), or OX81 (anti-IL4; isotype control) and were analyzed by flow cytometry. (B) To assess IFNβ-mediated anti-proliferative activity, supernatants from two independently derived IFNβ-NAg expression systems as well as supernatants from several control expression systems were added at designated titrations (x-axis) to IL-2 stimulated cultures of BN-GP T cells. (C) To assess the specificity of anti-proliferative activity, baculovirus supernatants containing IFNβ-NAg were added at designated titrations to cultures of rat (R1T, BN-GP, RsL.11T, RsL.11, or Conal.8D9) or mouse (CTLL) T cells. Proliferative assays (B & C) were pulsed with [^3H]thymidine on the second day of a 3-day culture. (D) Shown is a representative SDS-PAGE analysis of purified IFNβ-NAg.
FIG. 2. Structure-function analysis of the cytokine and NAg domains of IFNβ fusion proteins. (A) Expression supernatants containing designated IFNβ fusion proteins (see Table 2) were added to cultures of BN-GP T cells at designated titrations (x-axis). (B) The IFNβ-EK-NAg-6his or IFNβ-EK-6his fusion genes were inserted into the pCEP4 expression vector (Invitrogen). Inserts were verified by DNA sequencing, and the genes were expressed by transient transfection of HEK293 cells. Independently derived expression systems of IFNβ-EK-NAg-6his or IFNβ-EK-6his (3 each) were compared in the BN-GP T cell anti-proliferative assay. (C) Independently purified preparations (2 each) of each IFN-β fusion protein (IFNβ-NAg from HEK293 cells, IFNβ-NAg from baculovirus, and IFN-β from HEK293 cells) were added at designated concentrations to assess anti-proliferative activity. Two independently purified preparations of the same fusion protein were tested to verify the reliability of activity for each type of protein. The x-axis was based on the exponent of the molar concentration. For example, a concentration of 100 nM was represented as Log [10^−7]=Log10) (10^−7M)=−7 and was plotted by the exponent of −7. For these experiments (A-C), BN-GP T cells were cultured in IL-2. (D) The MBP-specific RsL.11 T cell clone and irradiated splenic APC were cultured with designated concentrations of purified IFNβ-NAg or GPMBP in the presence or absence of the OX6 anti-MHC-II mAb. (E) Five preparations of purified IFNβ-NAg and six preparations of purified IFN-β were tested for antigenic activity in cultures of RsL.11 T cells and irradiated splenic APC.
The RsL.11 MBP-specific clone was a stable, IL-2 dependent line derived from Lewis rats sensitized with rat MBP in CFA (Mannie, M. D., and M. S. Norris. 2001. MHC class-II-restricted antigen presentation by myelin basic protein-specific CD4+ T cells causes prolonged desensitization and outgrowth of CD4-responders. Cell Immunol 212:51-62). The RsL.11T clone was a transformed variant of the RsL.11 clone. […]

EAE in Lewis rats = experiment: Prevention of EAE by pretreatment before encephalitogenic challenge; type: in vivo
[1] = Table 3, baculovirus-derived, 1 nmole s.c. days −21, −14, −7, challenge day 0, severe = EP or P
[2] = Table 3, baculovirus-derived, 1 nmole s.c. in saline days −21, −14, −7, challenge 50 ug DHFR-NAg in CFA day 0
[3] = Table 4 Exp. 1 & 2 combined, HEK293-derived, 1 nmole days −21, −14, −7, challenge day 0
[4] = Table 4 Exp. 1, HEK293-derived, 1 nmole days −21, −14, −7, challenge day 0
[5] = Table 4 Exp. 1, HEK293-derived, 1 nmole days −21, −14, −7, challenge day 0, severe = partial or full hindlimb paralysis
[6] = Table 4 Exp. 1, HEK293-derived, 1 nmole in saline days −21, −14, −7, challenge DHFR-NAg in CFA day 0
[7] = Table 4 Exp. 2, HEK293-derived, 1 nmole days −21, −14, −7, challenge day 0
[8] = Table 4 Exp. 2, HEK293-derived, 1 nmole days −21, −14, −7, challenge day 0, severe = partial or full hindlimb paralysis
[9] = Table 4 Exp. 2, HEK293-derived, 1 nmole in saline days −21, −14, −7, challenge DHFR-NAg in CFA day 0
[10] = Table 5 Exp 1-2 compiled, 1 nmole s.c. days −21, −14, −7 (IFNβ + NAg: separate injections), challenge day 0
[11] = Table 5 Exp 1, 1 nmole s.c. in saline days −21, −14, −7 (IFNβ + NAg: separate injections <0.5 cm apart), challenge DHFR-NAg in CFA day 0
[12] = Table 5 Exp 2, 1 nmole s.c. in saline days −21, −14, −7 (IFNβ + NAg: separate injections <0.5 cm apart), challenge DHFR-NAg in CFA day 0

B1: IFNβ-NAg: Fusion protein: rat IFNβ, enterokinase linker (GDDDDKG), encephalitogenic 73-87 peptide of guinea pig MBP, C-terminal 6-histidine tag (protein)
chain: IDYKQLQFRQSTSIRTCQKLLRQLNGRLNLSYRTDFKIPMEVMHPSQMEKSYTAFAIQVMLQNVFLVFRSNFSSTGWNETIVESLLDELHQQTELLEIILKEKQEERLTWVTSTTTLGLKSYYWRVQRYLKDKKYNSYAWMVVRAEVFRNFSIILRLNRNFQNGDDDDKGPQKSQRSQDENPVVHHHHHH
For B1, the “Biological activity of IFNβ in expression supernatants” value (BN-GP T cells) was “Potent activity”, the “cytokine activity relative to HEK293-derived protein” value (BN-GP T cells; protein purified from baculovirus expression supernatants) was “less active” and the “Incidence of severe EAE” value (EAE in Lewis rats; [1]) was 4 of 9. For the same molecule, the “Mean # days with severe EAE” value (EAE in Lewis rats; [1]) was 1.0 ± 1.3 days, the “Incidence of EAE” value (EAE in Lewis rats; [2]) was 9 of 9 and the Mean cumulative score (EAE in Lewis rats; [2]) was 3.4 ± 2.7. The Mean maximal score (EAE in Lewis rats; [2]) was 1.4 ± 0.9, the Median cumulative score (EAE in Lewis rats; [2]) was 2.5 and the Median maximal score (EAE in Lewis rats; [2]) was 1.0. For the same molecule, the “Incidence of EAE” value (EAE in Lewis rats; [3]) was 8 of 8, the “Incidence of severe EAE” value (EAE in Lewis rats; [3]) was 4 of 8 and the “Mean # days with severe EAE” value (EAE in Lewis rats; [3]) was 0.8 ± 1.0 days. The Mean cumulative score (EAE in Lewis rats; [3]) was 7.0 ± 5.3, the Mean maximal score (EAE in Lewis rats; [3]) was 1.5 ± 0.9 and the Median cumulative score (EAE in Lewis rats; [3]) was 5.9. For the same molecule, the Median maximal score (EAE in Lewis rats; [3]) was 1.5, the “Mean # days with severe EAE” value (EAE in Lewis rats; [4]) was 0.6 ± 1.3 days and the “Incidence of severe EAE” value (EAE in Lewis rats; [5]) was 1 of 4. The “Incidence of EAE” value (EAE in Lewis rats; [6]) was 4 of 4, the Mean cumulative score (EAE in Lewis rats; [6]) was 6.3 ± 6.7 and the Mean maximal score (EAE in Lewis rats; [6]) was 1.3 ± 1.2. For the same molecule, the Median cumulative score (EAE in Lewis rats; [6]) was 3.9, the Median maximal score (EAE in Lewis rats; [6]) was 1.0 and the “Mean # days with severe EAE” value (EAE in Lewis rats; [7]) was 1.0 ± 0.7 days. The “Incidence of severe EAE” value (EAE in Lewis rats; [8]) was 3 of 4, the “Incidence of EAE” value (EAE in Lewis rats; [9]) was 4 of 4 and the Mean cumulative score (EAE in Lewis rats; [9]) was 7.8 ± 4.3. For the same molecule, the Mean maximal score (EAE in Lewis rats; [9]) was 1.6 ± 0.8, the Median cumulative score (EAE in Lewis rats; [9]) was 8.9 and the Median maximal score (EAE in Lewis rats; [9]) was 2.0. The “% mean maximal weight loss” value (EAE in Lewis rats; [10]) was 12.6 ± 3.6%, the “Incidence of EAE” value (EAE in Lewis rats; [10]) was 14 of 14 and the “Incidence of severe EAE” value (EAE in Lewis rats; [10]) was 7 of 14. The “Mean # days with severe EAE” value (EAE in Lewis rats; [10]) was 1.0 ± 1.2 days, the Mean cum. score (EAE in Lewis rats; [10]) was 7.6 ± 6.2 and the Mean maximal score (EAE in Lewis rats; [10]) was 1.5 ± 1.1. The Median cum. score (EAE in Lewis rats; [10]) was 5.5, the Median maximal score (EAE in Lewis rats; [10]) was 1.5 and the “% mean maximal weight loss” value (EAE in Lewis rats; [11]) was 14.8 ± 1.9%. For the same molecule, the “Incidence of EAE” value (EAE in Lewis rats; [11]) was 7 of 7, the “Incidence of severe EAE” value (EAE in Lewis rats; [11]) was 4 of 7 and the “Mean # days with severe EAE” value (EAE in Lewis rats; [11]) was 1.1 ± 1.2 days. The Mean cum. score (EAE in Lewis rats; [11]) was 8.0 ± 6.3, the Mean maximal score (EAE in Lewis rats; [11]) was 1.5 ± 1.0 and the Median cum. score (EAE in Lewis rats; [11]) was 7.0. The Median maximal score (EAE in Lewis rats; [11]) was 2.0, the “% mean maximal weight loss” value (EAE in Lewis rats; [12]) was 10.5 ± 3.6% and the “Incidence of EAE” value (EAE in Lewis rats; [12]) was 7 of 7. The “Incidence of severe EAE” value (EAE in Lewis rats; [12]) was 3 of 7, the “Mean # days with severe EAE” value (EAE in Lewis rats; [12]) was 0.9 ± 1.2 days and the Mean cum. score (EAE in Lewis rats; [12]) was 7.2 ± 6.4. For the same molecule, the Mean maximal score (EAE in Lewis rats; [12]) was 1.5 ± 1.4, the Median cum. score (EAE in Lewis rats; [12]) was 3.0 and the Median maximal score (EAE in Lewis rats; [12]) was 0.5. The “day of disease onset” value (EAE in Lewis rats; baculovirus-derived, pretreatment days −21, −14, −7 (not shown)) was “did not significantly modulate”.

B2: IFNβ: Rat interferon beta cytokine with enterokinase linker and 6-histidine sequence, no neuroantigen (protein)
chain: IDYKQLQFRQSTSIRTCQKLLRQLNGRLNLSYRTDFKIPMEVMHPSQMEKSYTAFAIQVMLQNVFLVFRSNFSSTGWNETIVESLLDELHQQTELLEIILKEKQEERLTWVTSTTTLGLKSYYWRVQRYLKDKKYNSYAWMVVRAEVFRNFSIILRLNRNFQNGDDDDKGHHHHHH
With B2 the “Biological activity of IFNβ in expression supernatants” value (BN-GP T cells) was “Potent activity”, the “Incidence of EAE” value (EAE in Lewis rats; [3]) was 8 of 8 and the “Incidence of severe EAE” value (EAE in Lewis rats; [3]) was 8 of 8. The “Mean # days with severe EAE” value (EAE in Lewis rats; [3]) was 3.4 ± 0.8 days, the Mean cumulative score (EAE in Lewis rats; [3]) was 22.8 ± 4.0 and the Mean maximal score (EAE in Lewis rats; [3]) was 2.9 ± 0.4. The Median cumulative score (EAE in Lewis rats; [3]) was 22.5, the Median maximal score (EAE in Lewis rats; [3]) was 3.0 and the “Mean # days with severe EAE” value (EAE in Lewis rats; [4]) was 3.0 ± 0.4 days. The “Incidence of severe EAE” value (EAE in Lewis rats; [5]) was 4 of 4, the “Incidence of EAE” value (EAE in Lewis rats; [6]) was 4 of 4 and the Mean cumulative score (EAE in Lewis rats; [6]) was 22.0 ± 2.6. The Mean maximal score (EAE in Lewis rats; [6]) was 3.0 ± 0.0, the Median cumulative score (EAE in Lewis rats; [6]) was 21.3 and the Median maximal score (EAE in Lewis rats; [6]) was 3.0. The “Mean # days with severe EAE” value (EAE in Lewis rats; [7]) was 3.9 ± 0.9 days, the “Incidence of severe EAE” value (EAE in Lewis rats; [8]) was 4 of 4 and the “Incidence of EAE” value (EAE in Lewis rats; [9]) was 4 of 4. The Mean cumulative score (EAE in Lewis rats; [9]) was 23.7 ± 5.3, the Mean maximal score (EAE in Lewis rats; [9]) was 2.8 ± 0.5 and the Median cumulative score (EAE in Lewis rats; [9]) was 23.6. For the same molecule, the Median maximal score (EAE in Lewis rats; [9]) was 3.0.
